The results in this text go back to US20140178935A1 (AVEO PHARMACEUTICALS, published 2014).

B1: anti-hHGF monoclonal antibody 1D3 (antibody, mouse IgG1, kappa, V domains shown)
VH: EVQLVESGGGLVQPGGSLKLSCAASGFTFSDYYMSWVRQTPEKRLEWVAYISSGGGSTYYPDSVKGRFTISRDNAKNTLYLQMSSLKSEDTAIYYCVRQGDGYYGDYAMDYWGQGTSVIVSS
VL: DIQMTQSPASLSVSVGETVTITCRTSENIYSNLAWYQQKQGKSPQLLIYAATNLADGVPSRFSGSGSGTQFSLRINSLQSEDFGRYYCQHFWGTPYTFGGGTKLEIKR
notes: Murine IgG1 kappa from hybridoma
B2: anti-hHGF monoclonal antibody 1F3 (antibody, mouse IgG1, kappa, V domains shown)
VH: B1 VH with P14S, D31N, Y33F, I93M, I119T
VL: B1 VL with T25A, I48V, A50D, N53H, A55P, R74K, R85S, K103R
notes: as for B1
B3: Kappa Hu2B8_Kv3-15.1 / Heavy Chimeric 2B8 (antibody, human IgG1, kappa, V domains shown)
VH: QVQLQQPGAELVKPGTSVKLSCKASGYTFTTYWMHWVNQRPGQGLEWIGEINPTNGHTNYNEKFKSKATLTVDKSSSTAYMQLSSLTSEDSAVYYCARNYVGSIFDYWGQGTTLTVSS
VL: EIVMTQSPATLSVSPGERATLSCKASENVVSYVSWYQQKPGQAPRLLIYGASNRNTGIPARFSGSGSGTEFTLTISSLQSEDFAVYYCGQSYNYPYTFGQGTKLEIKR
notes: also called Chimeric 2B8 IgG1 heavy chain with Hu2B8 Kv3-15.1 + Kappa Constant light chain
B4: Kappa Chimeric 2B8 / Heavy Hu2B8_Hv1-f.1 (antibody, human IgG1, kappa, V domains shown)
VH: EVQLVQSGAEVKKPGATVKISCKVSGYTFTTYWMHWVQQAPGKGLEWMGEINPTNGHTNYNEKFQGRVTITADTSTDTAYMELSSLRSEDTAVYYCATNYVGSIFDYWGQGTLVTVSS
VL: NIVMTQSPKSMSMSVGERVTLSCKASENVVSYVSWYQQKPAQSPKLLIYGASNRNTGVPDRFTGSGSATDFTLTISSVRAEDLADYHCGQSYNYPYTFGGGTRLEIKR
notes: also called Hu2B8 Hv1-f.1 + IgG1 Constant heavy chain with Chimeric 2B8 Kappa light chain
B5: Kappa Hu2B8_Kv3-15.1 / Heavy Hu2B8_Hv1-f.1 (antibody, human IgG1, kappa, V domains shown)
VH: B4 VH
VL: B3 VL
notes: also called Hu2B8 Hv1-f.1 + IgG1 Constant heavy chain with Hu2B8 Kv3-15.1 + Kappa Constant light chain
B6: Kappa Hu2B8_Kv1-39.1 / Heavy Hu2B8_Hv5-a.1 (antibody, human IgG1, kappa, V domains shown)
VH: EVQLVQSGAEVKKPGESLRISCKGSGYSFTTYWMHWVRQMPGKGLEWMGEINPTNGHTNYNPSFQGHVTISADKSISTAYLQWSSLKASDTAMYYCARNYVGSIFDYWGQGTLVTVSS
VL: DIQMTQSPSSLSASVGDRVTITCKASENVVSYVSWYQQKPGKAPKLLIYGASNRNTGVPSRFSGSGSGTDFTLTISSLQPEDFATYYCGQSYNYPYTFGQGTKLEIKR
notes: also called Hu2B8 Hv5-a.1 + IgG1 Constant heavy chain with Hu2B8 Kv1-39.1 + Kappa Constant light chain
B7: Kappa Hu2B8_Kv1-39.1 / Heavy Hu2B8_Hv1-f.1 (antibody, human IgG1, kappa, V domains shown)
VH: B4 VH
VL: B6 VL
notes: also called Hu2B8 Hv1-f.1 + IgG1 Constant heavy chain with Hu2B8 Kv1-39.1 + Kappa Constant light chain
B8: Kappa Hu2B8_Kv1-39.1 / Heavy Chimeric 2B8 (antibody, human IgG1, kappa, V domains shown)
VH: B3 VH
VL: B6 VL
notes: also called Chimeric 2B8 IgG1 heavy chain with Hu2B8 Kv1-39.1 + Kappa Constant light chain
B9: Kappa Chimeric 2B8 / Heavy Hu2B8_Hv5-a.1 (antibody, human IgG1, kappa, V domains shown)
VH: B6 VH
VL: B4 VL
notes: also called Hu2B8 Hv5-a.1 + IgG1 Constant heavy chain with Chimeric 2B8 Kappa light chain
B10: Kappa Hu2B8_Kv3-15.1 / Heavy Hu2B8_Hv5-a.1 (antibody, human IgG1, kappa, V domains shown)
VH: B6 VH
VL: B3 VL
notes: also called Hu2B8 Hv5-a.1 + IgG1 Constant heavy chain with Hu2B8 Kv3-15.1 + Kappa Constant light chain
B11: chimeric 2B8 (mouse variable regions with human IgG1 (G1m(17,1)) and Kappa (Km(3)) constant regions) (antibody)
heavy: not shown
light: NIVMTQSPKSMSMSVGERVTLSCKASENVVSYVSWYQQKPAQSPKLLIYGASNRNTGVPDRFTGSGSATDFTLTISSVRAEDLADYHCGQSYNYPYTFGGGTRLEIKRTVAAPSVFIFPPSDEQLKSGTASVVCLLNNFYPREAKVQWKVDNALQSGNSQESVTEQDSKDSTYSLSSTLTLSKADYEKHKVYACEVTHQGLSSPVTKSFNRGEC
notes: also called Chimeric 2B8 IgG1; Chimeric 2B8 Kappa (Km(3))

Positions count from the first letter of the chain named.

T1 sequence (P14210 32-728 limits assumed): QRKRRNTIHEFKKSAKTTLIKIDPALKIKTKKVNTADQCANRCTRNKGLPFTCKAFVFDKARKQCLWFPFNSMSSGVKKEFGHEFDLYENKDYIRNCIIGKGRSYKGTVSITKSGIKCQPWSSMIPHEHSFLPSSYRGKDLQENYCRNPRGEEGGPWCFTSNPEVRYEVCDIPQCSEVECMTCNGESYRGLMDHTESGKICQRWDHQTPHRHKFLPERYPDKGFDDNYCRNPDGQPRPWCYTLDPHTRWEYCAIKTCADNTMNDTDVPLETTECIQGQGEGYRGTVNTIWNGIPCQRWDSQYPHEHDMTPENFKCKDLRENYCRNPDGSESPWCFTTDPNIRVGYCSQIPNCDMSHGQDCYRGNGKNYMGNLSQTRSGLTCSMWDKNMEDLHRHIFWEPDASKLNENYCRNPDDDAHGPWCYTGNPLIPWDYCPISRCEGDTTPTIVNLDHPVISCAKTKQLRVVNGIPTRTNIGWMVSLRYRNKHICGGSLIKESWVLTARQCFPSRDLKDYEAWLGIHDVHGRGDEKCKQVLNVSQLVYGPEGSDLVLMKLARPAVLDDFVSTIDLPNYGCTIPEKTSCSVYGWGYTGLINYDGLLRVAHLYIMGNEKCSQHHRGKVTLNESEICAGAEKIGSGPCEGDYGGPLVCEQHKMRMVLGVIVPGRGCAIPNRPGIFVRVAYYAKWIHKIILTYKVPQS
Sequence of hHGF-Fc G555E (recombinant hHGF protein containing a glycine to glutamate substitution at position 555) (human) (chain, as listed by the source G555E G555E limits assumed): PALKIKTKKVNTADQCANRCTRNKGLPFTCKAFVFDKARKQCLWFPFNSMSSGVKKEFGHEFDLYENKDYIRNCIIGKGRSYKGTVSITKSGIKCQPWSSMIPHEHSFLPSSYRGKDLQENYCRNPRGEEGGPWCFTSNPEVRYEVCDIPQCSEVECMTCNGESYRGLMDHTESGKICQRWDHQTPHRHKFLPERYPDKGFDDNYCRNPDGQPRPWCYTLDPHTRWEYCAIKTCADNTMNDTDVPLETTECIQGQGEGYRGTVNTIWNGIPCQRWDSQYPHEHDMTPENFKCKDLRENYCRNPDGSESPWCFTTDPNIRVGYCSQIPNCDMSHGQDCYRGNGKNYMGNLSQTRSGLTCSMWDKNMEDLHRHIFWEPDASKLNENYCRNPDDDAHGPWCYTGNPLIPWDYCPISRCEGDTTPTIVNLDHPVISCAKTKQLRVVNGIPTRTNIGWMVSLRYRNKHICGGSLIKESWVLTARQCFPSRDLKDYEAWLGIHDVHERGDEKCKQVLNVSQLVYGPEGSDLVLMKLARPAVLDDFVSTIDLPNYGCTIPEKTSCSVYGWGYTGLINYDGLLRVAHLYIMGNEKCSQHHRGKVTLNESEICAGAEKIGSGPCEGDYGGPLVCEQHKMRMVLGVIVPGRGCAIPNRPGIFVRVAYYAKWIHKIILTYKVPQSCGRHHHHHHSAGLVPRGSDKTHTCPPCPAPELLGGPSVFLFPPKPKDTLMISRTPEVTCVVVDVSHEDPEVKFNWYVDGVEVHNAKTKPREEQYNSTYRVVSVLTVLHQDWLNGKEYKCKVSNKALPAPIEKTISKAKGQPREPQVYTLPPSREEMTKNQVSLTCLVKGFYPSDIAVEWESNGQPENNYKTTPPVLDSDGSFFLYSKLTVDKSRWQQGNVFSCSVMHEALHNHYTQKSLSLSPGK
T2 sequence (Q08048 33-728 limits assumed): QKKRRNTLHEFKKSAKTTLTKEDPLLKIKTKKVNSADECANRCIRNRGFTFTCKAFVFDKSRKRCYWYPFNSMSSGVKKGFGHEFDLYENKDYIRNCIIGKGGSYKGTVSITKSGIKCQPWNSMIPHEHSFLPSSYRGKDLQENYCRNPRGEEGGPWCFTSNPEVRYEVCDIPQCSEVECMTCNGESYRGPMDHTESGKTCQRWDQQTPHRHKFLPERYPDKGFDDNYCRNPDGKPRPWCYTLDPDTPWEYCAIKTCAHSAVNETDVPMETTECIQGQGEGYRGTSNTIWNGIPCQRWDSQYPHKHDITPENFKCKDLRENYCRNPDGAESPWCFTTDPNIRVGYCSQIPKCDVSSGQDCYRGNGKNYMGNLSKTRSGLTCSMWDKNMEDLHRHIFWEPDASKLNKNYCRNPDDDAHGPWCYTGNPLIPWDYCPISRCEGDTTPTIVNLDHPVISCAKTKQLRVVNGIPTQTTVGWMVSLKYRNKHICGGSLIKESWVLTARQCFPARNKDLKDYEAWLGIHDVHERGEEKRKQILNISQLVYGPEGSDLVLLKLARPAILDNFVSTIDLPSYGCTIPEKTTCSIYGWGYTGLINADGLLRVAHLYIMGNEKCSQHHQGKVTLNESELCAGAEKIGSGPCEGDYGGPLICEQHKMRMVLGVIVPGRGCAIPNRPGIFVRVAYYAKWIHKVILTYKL

The first test has as its target T1, recombinant human HGF (R&D Systems, Catalog No. 294-HGN-025) (human, UniProt P14210 32-728).
T1 construct: Mature HGF is a disulfide-linked heterodimer of alpha and beta chain cut from one precursor; also called rhHGF (R&D Systems); rhHGF
Put plainly: SPR, antibody captured by anti-mouse Ig, HGF injected, 25 C. The protocol: (§1) Rabbit anti-mouse immunoglobulins (BIAcore, Catalog No. BR-1005-14) were immobilized on carboxymethylated dextran CM5 sensor chips (BIAcore, Catalog No. BR-1006-68) by amine coupling (BIAcore, Catalog No. BR-1000-50) using a standard coupling protocol according to manufacturer's instructions. The analyses were performed at 25° C. using PBS (GIBCO, Catalog No. 14040-133) containing 0.05% surfactant P20 (BIAcore, Catalog No. BR-1000-54), 2 mg/mL BSA (EMD, Catalog No. 2930), and 10 mg/mL CM-Dextran Sodium salt (Fluka, Catalog No. 86524) as running buffer.
(§2) The antibodies were captured in an individual flow cell at a flow rate of 10 μL/min. Injection time was variable for each antibody to yield approximately 20 RU of antibody captured for each cycle. […] The dissociation phase was monitored for 15 or 90 minutes, depending on concentration. The surface then was regenerated with 10 mM Glycine-HCl, pH 1.7 (BIAcore, Catalog No. BR-1003-54) injected for 3 minutes at a flow rate of 60 μL/min before another cycle was initiated.
Kinetic parameters were determined using the kinetic function of the BIAevalutation software with reference subtraction.
On the technique in general: Surface plasmon resonance follows binding to a sensor surface in real time, without labels.
As usually defined, the Kd is the concentration at which binding is half-saturated. The term koff denotes a measure of how fast the partners let go of each other. One may read the kon as a measure of how fast the partners come together. In the case of B1, the Kd was 0.0542 nM, the koff was determined as 8.2e-05 s⁻¹ and the kon turned out to be 1.7e+06 M⁻¹ s⁻¹.

As to B2, the Kd came to 0.0181 nM, the koff was determined as 2.6e-05 s⁻¹ and the kon was found to be 1.5e+06 M⁻¹ s⁻¹.

Another test has as its target T1, recombinant human HGF (R&D Systems, …). Put plainly: SPR (BIAcore T100), antibody captured on mouse anti-human immunoglobulin CM4 chip, HGF 1.88, 3.75 and 7.5 nM injected, 25 C. The protocol:
as §1, with “Antigen-binding affinity and kinetics of interaction were assessed by surface plasmon resonance technology using a BIAcore T100 instrument. Mouse anti-human” for “Rabbit anti-mouse”, “(Jackson ImmunoResearch Labs, 209-005-098)” for “(BIAcore, Catalog No. BR-1005-14)”, “CM4” for “CM5”, “BR-1005-34)” for “BR-1006-68)”, “recommendations.” for “instructions.”, “2930)” for “2930),”
as §2, with “on” for “in an”, “2.0” for “1.7”, “BR-1003-55)” for “BR-1003-54)”, “initiated. […] Determination of kinetic parameters was achieved using the kinetic function of the BIAevalutation software with reference subtraction.” for “initiated.”
As for B3, the off-rate (koff) was 1.7e-05 s⁻¹ and the kon turned out to be 3.1e+06 M⁻¹ s⁻¹.

For the molecule B4, the koff was 0.0016 s⁻¹ and the kon stood at 2.4e+06 M⁻¹ s⁻¹.

As to B5, the off-rate (koff) turned out to be 0.0037 s⁻¹ and the kon was 7.8e+06 M⁻¹ s⁻¹.

With B6, the koff came to 3.8e-05 s⁻¹ and the kon was 2.6e+06 M⁻¹ s⁻¹.

Regarding B7, the koff turned out to be 0.0021 s⁻¹ and the kon was 7.1e+06 M⁻¹ s⁻¹.

For the molecule B8, the koff stood at 3.9e-05 s⁻¹ and the kon came to 2.8e+06 M⁻¹ s⁻¹.

On to B9, for which the off-rate (koff) came out at 1.1e-05 s⁻¹ and the kon amounted to 2.4e+06 M⁻¹ s⁻¹.

As to B10, the koff was determined as 5.9e-05 s⁻¹ and the kon amounted to 2.2e+06 M⁻¹ s⁻¹.

With B11, the koff turned out to be 2.7e-05 s⁻¹ and the kon came to 2.3e+06 M⁻¹ s⁻¹.

For another test the target is unchanged. Put plainly: cell-based or functional assay.
In the case of B1, the “EC50, inhibition of HGF-stimulated c-Met phosphorylation in PC-3 cells, Average of Two Trials” value was 0.984 nM.

In the case of B2, the “EC50, inhibition of HGF-stimulated c-Met phosphorylation in PC-3 cells, Average of Two Trials” value stood at 1.19 nM.

The target is the same in a further test. As to the kind of experiment: cell-based or functional assay. This is another data set of the same source.
As for B1, the “IC50, neutralization of HGF stimulated BrdU incorporation in 4 MBr-5 cells” value was 4.99 nM.

For B2, the “IC50, neutralization of HGF stimulated BrdU incorporation in 4 MBr-5 cells” value came to 1.94 nM.

For another test the target is unchanged. Put plainly: competition ELISA (DELFIA): antibody inhibits c-Met binding to plate-coated HGF. The protocol: The plates then were blocked with 200 μL of 5% non-fat dry milk in PBS for 1 hour at room temperature. […] 100 μL of sample per well was transferred to the assay plate and incubated overnight at 4° C.
The resulting plates then were washed three times with PBS-0.1% Tween 20, and incubated for 1 hour at room temperature with Eu-labeled Streptavidin (Wallac, Catalog No. 1244-360) diluted 1:1000 in DELFIA assay buffer (Wallac, Catalog No. 4002-0010). The resulting plates were washed 3 times with DELFIA wash solution (Wallac, Catalog No. 4010-0010) and incubated with 100 μL/well DELFIA enhancement solution (Wallac #4001-0010) for 15 minutes at room temperature with agitation.
The plates were read on Victor³V instrument (Perkin Elmer) using the Europium method.
A general note: In an ELISA, binding on a coated surface is turned into a signal by an enzyme label.
Broadly, the IC50 is the point on the concentration scale where inhibition reaches its midpoint. For the molecule B1, the IC50 amounted to 4.43 nM.

In the case of B2, the IC50 was 6.57 nM.

The target in the next test is hHGF-Fc G555E (recombinant hHGF protein containing a glycine to glutamate substitution at position 555) (human). As to the kind of experiment: SPR, antibody immobilized, HGF protein injected, 25 C. The protocol:
(§3) Each antibody was immobilized on a carboxymethylated dextran CM5 sensor chip (BIAcore, Catalog No. BR-1006-68) by amine coupling (BIAcore, Catalog No. BR-1000-50) using a standard coupling protocol according to manufacturer's instructions.
(§4) Analyses were performed at 25° C. using PBS (GIBCO, Catalog No. 14040-133) containing 0.05% surfactant P20 (BIAcore, Catalog No. R-1000-54), 2 mg/mL BSA (EMD, Catalog No. 2930) and 10 mg/mL CM-Dextran Sodium salt (Fluka, Catalog No. 86524) as running buffer. […] The resulting binding was determined as resonance units (RU) over baseline 30 seconds after the end of injection. […] Non-specific binding was monitored by comparing binding to a control surface where mouse IgG (Rockland, Catalog No. 010-0102) was immobilized using the same amine coupling procedure.
Turning to B1, the binding result is “binds”.

As to B2, the binding result is listed as “binds”.

The target of a further test is hHGF-Fc C561R (recombinant hHGF protein containing a cysteine to arginine substitution at position 561) (human). The test is described as above. The protocol: as §3, §4
Sequence of hHGF-Fc C561R (recombinant hHGF protein containing a cysteine to arginine substitution at position 561) (human) (chain, as listed by the source C561R C561R limits assumed): as the sequence (chain, as listed by the source G555E G555E limits assumed) above, with E501G, C507R counted along it
On to B1, for which the binding result is listed as “binds”.

In the case of B2, the binding result was “binds”.

Another test concerns the target T2, recombinant mouse HGF (R&D Systems) (mouse, UniProt Q08048 33-728).
T2 construct: Bought protein, construct not described; also called rmHGF (R&D Systems); murine HGF
The description is as above. The protocol:
as §3, §4
Take B1: the binding result is listed as “no binding”.

Turning to B2, the binding result was “binds”.
